Data taken from the nanobody polyreactivity screen of Harvey et al. (2022).

Test: yeast display, Sf9 membrane polyspecificity reagent, FACS + sequencing; frameworks hold sequencing errors
Method in brief: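 Galactose-induced (36–48 hours) yeast carrying a synthetic nanobody display library were exposed to 10% biotinylated, detergent-solubilized Sf9 membrane reagent at 4 °C for 1 hour. FACS followed streptavidin microbead enrichment, using low and high (top ~1%) gates for expression (anti-HA) and reagent binding (streptavidin). Colony PCR, MiSeq 2 × 250 sequencing and CDR-length filtering followed. Labels for polyreactivity reflect the gate of origin.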

Sequence	polyreactivity (PSR sort gate)
QVQLVESGGGLVQAGGSLRLSCAASGFTFLSYTMGWYSQAPGKERELVASITASGTRTYYADSVKGRFIISRDNAKNTVYLQMNRLKPEDTAVYYFAARWISVWSEGAEHDYWGQGTQVTVSS	low polyreactivity
QVQLVESGGGLVQAGGSLRLSCAASGRTFIPNAMGWYRQAPGKERELVARITLRGGSTYYADSVKGRFTISRDNAKNTVYLQMNSLKPEDTAVYYCAAVFSRKGLRYDYWGQGTQVTVSS	low polyreactivity
QVQLVESGGGLVQAGGSLRLSCAASGFIFRYYTMGWYRQAPGKERELVATITSGGSTYYADSVKGRFTISRDNAKNTVYLQMNSLKPEDTAVYYCAKVRDVLWRFNYWGQGTQVTVSS	high polyreactivity
QVQLVESGGGLVQAGGSLRLSCAASGFTFWWYAMGWYRQAPGKERELVAAISSGGSTNYADSVKGRFTISRDNAKNTVYLQMNSLKPEDTAVYYCNALGVGHSGFTKFSRYYYWGQGTQVTVSS	high polyreactivity
QVQLVESGGGLVQAGGSLRLSCAASGSTFDIYAMGWYRPAPGKERELVAVISGGDGSTYYADSVKGRFTISRDNAKNTVYLQMNSLKPEDTAVYYCAADYISPGYWDGEYDCWGQGTQVTVSS	low polyreactivity
QVQLVESGGGLVQAGGSLRLSCAASGSTFNLYAMGWYRQAPGKERELVAAISDGDSSTYYADSVKGRFTISRDNAKNTVYLQMNSLKPEDTAVYYCAADFSVYTEEDDSWGQGTQVTVSS	low polyreactivity
QVQLVESGGGLVQAGGTLRLSCDASGSIFFWKAMGWYRQAPGKERELVAAISYTDGSTYYADSVKGRFTIPRDNAKNTVYLLMNSLKPEDTAVYYCAAAITPSYNGSEYDYWGQGTQVTVSS	low polyreactivity
QVQLVESGGGLVQAGGSLRLSCAASGRVRYAIGWYRQAPGKESELVASITRRAGNTYYADSVKGRFTISRDNAKNTVYLQMNSLKPEDTAVYYCAAADVGAYRGNYWGQGTLVTVSS	high polyreactivity
QFQLVESGGGLVQAGGSLRLSCAASGRIFYRNAMGWYRQAPGKERELVAAINQTGGSTYYADSVKGRFTISGDNAKNTVYLQMNSLKPDDTAVYYCAVLGQVPTGSSRRYYWGQGTQVTVSS	high polyreactivity
QVQLVESGGGLVQAGRNLRLSCAASGRTFYNNVMGWYRQAPGKERELVAAIDWNDGSTYYADSVKGRFTISRDKAKNTVFLQMNSLKPEDTAVYYCAADAYGYGGDSWGQGTQVTVSS	low polyreactivity
QVQLVESGGGLVQAGGSLRLSCAASGSTFVIYAMGWYRQAPGKERELVASIRGRTGSTYYADSVKGRFTISRDNAKNTVYSQLNSLKPEDTAVYYCAAKPGYKSKMDYWGQGTQVTVSS	high polyreactivity
QVQLVESGGGLVQAGGSLRLSCAASGRTFGQYAMGWSRQAPGKERELVAAISARGASTYYADSVKGRFTISRDTAKNTVYLQMNSLKPEDTAVYYCNKYGRTSSTPLFYYWGQGTQVTVSS	high polyreactivity
QVQLVESGGGLVQAGGSLRLSCAASGSTFYPKAKAWNRQAPGKERELVAGISSGGGTYYADSVKGRFTISRDNAKNTVYLQMNSLKREDTAVYYCNAYFLSSSLDYWGQGTQVTVSS	low polyreactivity
QVQLVESGGGLVQAGGSLRLSCAASGYIFDWNAMGCYRQAPGKERELVAAISSGGRTNYADSVKGRFTISRDNAKNTVYLQMNSLKPEDTAVYYCNTGPYTFDSPEYYYWGQGTQVTVSS	low polyreactivity
QVQLVESGGGLVQAGGSLRLSCAASGSIIYLYAMGWYRQAPGKEREFVAAITWRGASTYYADSVKGRFTISRYNAKNTVYLQMNSLKPEDTAVYYCAAKLPRVYGYGFDYWGQGTQVTVSS	low polyreactivity
QVQLVESGVGLVQARGSLRLSCASSGSILIYNAMGWYRQAPGKVRELVAGISRRGDSTYYADSVKGRFTISRDNAKKTVYLQMNSLKPEDTAVYYCAALGKYIVAWSGDYWGQGTQVTVSS	low polyreactivity
QVQLVESGGGLVQAGGSLRLSCAASGFTFRAYAMGWYRQAPGKERELVAAITSGTRTYYADSVKGRFTISRDNAKNTVYLQMNSLKPEDTAVYDCAVGFILPSTFTRMYYWGQGTQVTVSS	high polyreactivity
QVQLVESGGGLVQAGGSLRLSCAASGSTLPNNAMGWYRQAPGKERELVAAISSSGGSTYYADSVKGRFTISRDNAKNTVYLQMNSLKPEDTAVYYCAAVYSRGTYNYWGQGTQVTVSS	high polyreactivity
QVQLVESGGGLVQAGGSLRLTCAASGRTFQYYSMGWYRQAPGKERELVAAISQDGGSTYYADSVKGRFTISRDNAKNTVYLQMNSLKPEDTAVYYCAARVDEYAYYALDDYWGQGTQVTVSS	low polyreactivity
QVQLVESGGGLVQAGGSLRLSCAASGIIFNSNAMGWYRQAPGKERELVAAISVSGGSTYYADSVKGRFTISRDNAKNTVYLQMNILKPEDTAVYYCAAVFYYWSLRSYYWGQGTQVTVSS	high polyreactivity
QVQLVESGGGLVQAAGSLRLSSAASGYTFYINAMGSYRQAPGKERELVATIRRRGGSTYYADSVKGRFTISRDNAKNTVYLQMNSLKPEDTAVYYCNADTLGGKYVYQYRRGFDYWGHGTQVTVSS	high polyreactivity
QVQLVESGGGLVQAGGSLRLSCAASGRTFLSYTMGWYRQATGKERELVAAITTSGGSTNYADSVKGRFSISRDTAKNTVYLQMNRLKPEDTAVYYCADEWSVYFNDPRSDYWGQGTQVTVSS	high polyreactivity

Sequence	polyreactivity (PSR sort gate)
QVQLVASGGGLVQAGGSLRISCAASGSIIYYYAMGWYRHAPRKERELVAAISTSSGRTYYADSVKGRFTISRDNAKNTVYLQMNSLKPEDTAVYYCANEIPFTRYTWPRYNYWGQGTQVTVSS	high polyreactivity
QVQLVESGGGLVQAGGSLRLSCPASGRTIRPYAMGWYRQAPGKERELVAAITGSGTSTYYADSVKGRFTISRDNAKNTVYLQMNSLKPEDTAVYYCAVAIGYVYKTYYYWGQGTQVTVSS	high polyreactivity
QVQLVESGGVLVQAGGSLRLSCAASGLIFKFYAMGWYRQAPGKERELVARISSSGGSTYYADSVKGRFTTSRDNAKNTVYLQMNSLKPEDTAVSYCAAGAYYVDRYARSSIFSYYYWGQATQVTVSS	high polyreactivity
QVQLVESGGGLVQAGGSLRLSCAASGSTFYGYAMGWYRQAPGKERELVAVINYSGGTTSYADSVKGRFTISRDNAKNTVYLQMNSLKPEDTAVYYCAARRRWAILRYRGNYDYWGQGTQVTVSS	high polyreactivity
QVQLVESGGGLVQAGGSHRLSCSASGRIFGLYAMGWYRQAPGKERELVAAITSSTGSTYYADSVKGRFTISRDNAKNTVYLQMNSLKPEDTAVYYCAADLYSPSIYGYIYYTWLDYWGQGTQVTVSS	high polyreactivity
QVQLVESGGGLVQAGGSLRLSCAESGLTFWDYVMGWYRQAPGKEMELVAAISDSGGDTYYADSVKGRFTISRDNAKNTVYLQMNSLKPEDTAVYYCAAEYAEYVLEYYRLYEYWGQGTQVTVSS	high polyreactivity
QVQLGESGGGLVQAGGSLRLSCAASGIIFDTYAMGWYRQAPGKQRELVAVISTRGTSTYYADSVKGRFTISRDNAKNTVYLQMNSLKPEDTEVYYCNAFGRYSYPTFDYWGQGTQVTVSS	high polyreactivity
QVQLVESGGGLVQAGGSLRLSCAASGNIFRRYTLGWSRQAPGKERELVAAISSGGSTNYADSVKGRFTLSRDNAKNTVYLQMNSLKPEDTAVYYCAATRRYIQYGYDYWGQGTQVTVSS	high polyreactivity
QVQLVESGGGLVQAGGSLRLSCAASGITFYGNAMGWYRQAPGKERELVAAITYSGTSTYYADSVKGRFTISRDNAKNTVYLQMNSLKPEDTAVYYCAADEWYLVDYWGQGTQVTVSS	low polyreactivity
QVQLVESGGCLVQAGGSLRLSGAASGYTFFFNVMGWYRPAPGKERQMVAAISYSGGSTNYADSVKGRFTISRDNAKITVYLQINSLKPEDTAVYYCNARSVSRNGYQDDYWGQGTQVTVSS	low polyreactivity
QVQLVESGGGLVHAGGSLRLSCAASGRIFGVYAMGWYRQAPGKERELVAAISEGGGSTNYADSVKGRFTISRDNAKNTVYLQMNSLKPEDTAVYYCAATYRTGVRRYYSWGQGTQVTVSS	low polyreactivity
QVQLVESGGGLVQAGGSLRLSCAASGSIFYYYVMGWYIQAPGKERELVAAISSGGGTNYADSVKGRFTISRDNAKNSVYLQMNSLNPEDTAVYYGAKASAYGLANDYDYWGQGTQVTVSS	low polyreactivity
QVQHVESGGGLVQAGVSLRLSCAASGSIFVYYAMGWYRQAPGKERELVASISESDGSTSYADSVKGRFTISRDNAMNTVYLQMNSLKPEDTAVSYCAADPYFYWYSPSFDYWGQGTQVTVSS	low polyreactivity
QVHLVESGGGLVQAGGSLRLSSAAYGGIFDDNAMGWYRQAHGKERELVAAISSSGGSTYYADSVKGRFTISRDNAKYTVYLQMNSLKPEDTAVYYCNADRRRRFGYWGQGTQVNVSS	high polyreactivity
QVQLVESGGGLVQAGGSLRLSCAASGSIFPRYAMGWYRQAPGKERELVAAINSGGSTNYADSVKGRFTISRDNAKNTVYLQMHSLKPEDTAVYYCNAVFISYSYRRGPTLYVYWGQGTQVTVSS	high polyreactivity
QVQLVESGGRLVQAGGSLRLSCAASGRTFTYYAMGWYRQATGKERELVARITTVGSSTYYADSVKGRFTISRDNAKNTVYLQMNSLKPEETAVYYCNADHLWYSLFDYWGQGTQVTVSS	high polyreactivity
QVQLVESGGGLVQAGGSLRLSCAASGNTFEDYAMGWYRQAPGKERELVAAINSGGSTNYADSVKGRFTISRDNAKNTVYLQMNSLKPEDTAVYYCAAEPGEGFDYWGQGTQVTVSS	low polyreactivity
QDQLVESGGGLVQAGGSLRLSFAASGSTFWYNDMGWYRQAPGKERELVASISWSGGDTYYADSVKGRFTISRDNAKNSVYLQMNSLKPEDTEVYYCAKGNNWISRLMDYWGQGTQVTVSS	low polyreactivity
QVQLVESGGRLVQAGGSLRLSCAASGRTIRYNAMGWYRQAPGKERELVASISDGGSTNYADSVKGRFTISRDNAKNTVYLQMNSLKPEDTAVYYCALAGYRRYGYVYWGQGTQVTVSS	low polyreactivity
QVQLVESGGGLVQAGGSLRLSCAASGNTFDIYAMGWYRQAPGKERELVAAISSSGGSTYYADSVKGRFTISRDNAKNTVYLQMNSLKPEDTAVYYFNARHRQWARGYWGQGTQVTVSS	high polyreactivity
QVQIVESGGGLVQAGGILRLSCASSRSIFTVNTMGWYRQEHGKETELVAAINSRGGTTYYADSVKGRFTISRDNAKNTVYLQMISLKPEDTAFYYCAARTRIGLLYDYWGQGTQVTVSS	high polyreactivity
